One assay concerns the target activin. Nature of the assay: cell-based or functional assay.
Assay [1] has as its target growth/differentiation factor-8 (GDF-8) (UniProt O14793). The experiment in a line: cell-based or functional assay.
Sequence of UniProt O14793 (O14793 267-375 limits assumed): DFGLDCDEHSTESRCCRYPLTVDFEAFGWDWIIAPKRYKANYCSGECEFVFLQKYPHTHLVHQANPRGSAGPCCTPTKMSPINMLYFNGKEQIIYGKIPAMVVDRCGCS

Substance follistatin yielded an inhibition of elevation in standardized luciferase activity due to activin ((CAGA)12-MLP-Luc reporter assay, HEK293 cells) with activin of 100%. The inhibition of elevation in standardized luciferase activity due to GDF-8 ((CAGA)12-MLP-Luc reporter assay, HEK293 cells) in assay [1] stood at 100%.

The values above are taken from patent US20080090755A1.
